According to the supplement of paper PMC10567573:

B1: DYRK1B (parent)
chain: YQGPGTRRLQEVLGVQTGGPGGRR
B2: LMNB1 (parent)
chain: LYKEELEQTYHAKLENARLSSEMN

Variants of: B1
Assay: protein stability index of a GFP-peptide fusion (GPS, HEK-293T) (PSI 1-6); higher = more stable
Settings: c terminus: a fixed tail appended
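Further: lentivirally expressed fusions sorted by FACS into six bins by GFP to DsRed ratio, PSI derived from sequencing read proportions per bin multiplied by bin number.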

| Variant | protein stability index |
| --- | --- |
| L9G | 4.47 |
| L9I | 2.97 |
| L9S | 4.65 |
| L9E | 3.79 |
| L9K | 4.06 |
| L9T | 4.27 |
| L9V | 3.75 |
| L9R | 3.9 |
| L9N | 3.61 |
| L9Y | 3.06 |
| L9A | 4.03 |
| L9H | 2.81 |
| L9Q | 4.31 |
| L9C | 3.21 |
| L9F | 2.67 |
| L9M | 3.71 |
| L9W | 1.36 |
| L9P | 4 |
| L9D | 3.94 |
| L13F | 2.9 |
| L13Y | 3.63 |
| L13M | 3.31 |
| L13S | 4.07 |
| L13T | 3.97 |

| Variant | protein stability index |
| --- | --- |
| L13N | 3.85 |
| L13R | 3.61 |
| L13G | 3.9 |
| L13D | 3.93 |
| L13E | 4.44 |
| L13I | 3.47 |
| L13W | 1.67 |
| L13Q | 3.89 |
| L13P | 3.44 |
| L13H | 3.94 |
| L13V | 3.68 |
| L13C | 3.88 |
| L13K | 3.79 |
| L13A | 3.58 |
| G5A | 3.44 |
| G5F | 1.92 |
| G5R | 2.58 |
| G5W | 1.08 |
| G5P | 2.8 |
| G5Q | 4.42 |
| G5H | 3.17 |
| G5T | 3.22 |
| G5M | 2.46 |
| G5C | 3.38 |

| Variant | protein stability index |
| --- | --- |
| G5K | 2.94 |
| G5D | 3.69 |
| G5Y | 2.34 |
| G5N | 4.4 |
| G5S | 3.42 |
| G5I | 2.76 |
| G5E | 3.74 |
| G5V | 3.4 |
| R7C | 1.51 |
| R7Q | 3.76 |
| R7E | 4.05 |
| R7M | 3.21 |
| R7I | 3.57 |
| R7P | 3.5 |
| R7S | 3.45 |
| R7Y | 3.1 |
| R7V | 3.03 |
| R7F | 2.04 |
| R7D | 3.7 |
| R7G | 3.37 |
| R7W | 1.77 |
| R7K | 3.06 |
| R7A | 3.68 |
| R7N | 2.65 |

| Variant | protein stability index |
| --- | --- |
| R7H | 3.42 |
| R7T | 3.54 |
| R8V | 2.66 |
| R8S | 3.73 |
| R8G | 3.14 |
| R8D | 3.55 |
| R8Q | 3.67 |
| R8L | 1.91 |
| R8P | 3.49 |
| R8M | 2.35 |
| R8C | 2.21 |
| R8Y | 1.91 |
| R8N | 3.45 |
| R8T | 2.97 |
| R8K | 2.9 |
| R8H | 4.21 |
| R8I | 2.75 |
| R8E | 4.51 |
| R8W | 3.27 |
| R8A | 3.24 |
| G14V | 3.14 |
| G14E | 3.73 |
| G14S | 3.14 |
| G14A | 2.92 |

| Variant | protein stability index |
| --- | --- |
| G14R | 3.37 |
| G14L | 2.75 |
| G14I | 2.14 |
| G14K | 2.9 |
| G14D | 4.18 |
| G14W | 2.11 |
| G14M | 3.25 |
| G14C | 1.55 |
| G14N | 4.25 |
| G14T | 2.66 |
| G14Q | 3.72 |
| G14P | 4.17 |
| G14H | 3.62 |
| G14F | 2.66 |
| G14Y | 2.98 |
| Y1P | 5.36 |
| Y1V | 4.28 |
| Y1K | 3.84 |
| Y1H | 4.78 |
| Y1E | 4.83 |
| Y1W | 3.9 |
| Y1C | 4.48 |
| Y1Q | 4.04 |
| Y1R | 4.22 |

| Variant | protein stability index |
| --- | --- |
| Y1N | 4.63 |
| Y1F | 3.84 |
| Y1I | 4.33 |
| Y1M | 4.18 |
| Y1S | 4.96 |
| Y1A | 4.7 |
| Y1D | 4.91 |
| Y1L | 4.32 |
| Y1T | 4.72 |
| Y1G | 4.41 |
| V12K | 2.33 |
| V12I | 3.58 |
| V12H | 3.66 |
| V12D | 4.34 |
| V12W | 2.92 |
| V12C | 3.26 |
| V12A | 2.84 |
| V12L | 3.19 |
| V12R | 2.91 |
| V12E | 3.66 |
| V12Y | 3.05 |
| V12Q | 3.5 |
| V12G | 3.32 |
| V12M | 2.59 |

| Variant | protein stability index |
| --- | --- |
| V12F | 2.94 |
| V12N | 3.81 |
| V12P | 3.69 |
| V12S | 3.19 |
| V12T | 3.75 |
| T6M | 3.28 |
| T6A | 2.71 |
| T6H | 2.67 |
| T6Y | 1.77 |
| T6R | 3.51 |
| T6F | 2.88 |
| T6K | 2.33 |
| T6G | 3.32 |
| T6E | 3.47 |
| T6S | 2.54 |
| T6P | 3.04 |
| T6I | 2.87 |
| T6L | 2.37 |
| T6V | 3.02 |
| T6W | 2.17 |
| T6Q | 3.4 |
| T6C | 2.32 |
| T6D | 3.79 |
| T6N | 2.68 |

| Variant | protein stability index |
| --- | --- |
| E11C | 2.44 |
| E11T | 3.31 |
| E11I | 1.97 |
| E11G | 3.78 |
| E11V | 2.56 |
| E11N | 2.98 |
| E11L | 2.28 |
| E11R | 2.88 |
| E11H | 2.43 |
| E11M | 2.81 |
| E11S | 3 |
| E11D | 3.39 |
| E11F | 1.51 |
| E11K | 2.3 |
| E11P | 2.73 |
| E11Y | 2.97 |
| E11W | 1.55 |
| E11Q | 2.68 |
| E11A | 2.57 |
| Q10F | 2.34 |
| Q10G | 1.96 |
| Q10H | 2.98 |
| Q10Y | 2.25 |
| Q10C | 2.72 |

| Variant | protein stability index |
| --- | --- |
| Q10E | 3.82 |
| Q10L | 2.28 |
| Q10M | 2.82 |
| Q10R | 2.91 |
| Q10P | 4.21 |
| Q10D | 3.3 |
| Q10V | 2.52 |
| Q10I | 2.66 |
| Q10T | 3.39 |
| Q10N | 3.85 |
| Q10S | 3.57 |
| Q10A | 1.95 |
| Q10K | 3.3 |
| Q2D | 4.23 |
| Q2T | 3.12 |
| Q2G | 3.39 |
| Q2I | 2.52 |
| Q2M | 3.83 |
| Q2C | 2.66 |
| Q2Y | 3.7 |
| Q2H | 2.26 |
| Q2P | 3.44 |
| Q2N | 2.26 |
| Q2R | 3.87 |

| Variant | protein stability index |
| --- | --- |
| Q2K | 4.18 |
| Q2F | 3.22 |
| Q2L | 2.5 |
| Q2W | 2.95 |
| Q2S | 1.83 |
| Q2E | 4.23 |
| G3E | 4.32 |
| G3K | 2.79 |
| G3P | 3.39 |
| G3S | 3.44 |
| G3D | 3.83 |
| G3M | 3.03 |
| G3C | 3.58 |
| G3Y | 2.48 |
| G3V | 2.38 |
| G3Q | 3.11 |
| G3N | 3.71 |
| G3W | 3.1 |
| G3A | 3.31 |
| G3H | 3.81 |
| G3F | 2.77 |
| G3R | 2.25 |
| G3T | 3.52 |
| G3I | 2.98 |

| Variant | protein stability index |
| --- | --- |
| G3L | 3.23 |
| P4F | 1.68 |
| P4R | 2.78 |
| P4E | 3.3 |
| P4H | 2.79 |
| P4C | 2.29 |
| P4N | 2.69 |
| P4Q | 2.88 |
| P4M | 1.91 |
| P4K | 2.63 |
| P4Y | 2.35 |
| P4L | 2.39 |
| P4W | 1.76 |
| P4A | 3.01 |
| P4I | 2.58 |
| P4T | 2.79 |
| P4S | 2.32 |
| P4V | 3.14 |
| P4D | 2.81 |
| V15C | 2.82 |
| V15E | 3.44 |
| V15D | 3.23 |
| V15A | 3.69 |

Variants of: B2
Assay: as above
Settings: c terminus: a fixed tail appended

| Variant | protein stability index |
| --- | --- |
| M23Q | 3.04 |
| M23L | 2.19 |
| M23K | 3.28 |
| M23R | 3.21 |
| M23T | 2.52 |
| M23G | 2.8 |
| M23A | 3.24 |
| M23D | 2.82 |
| M23S | 2.87 |
| M23V | 2.46 |
| M23C | 2.76 |
| M23Y | 1.6 |
| M23N | 2.95 |
| M23W | 2.58 |
| M23P | 2.67 |
| M23E | 2.89 |
| M23F | 2.42 |
| M23I | 2.6 |
| M23H | 2.94 |
| E22S | 3.44 |
| E22G | 2.81 |
| E22H | 2.22 |
| E22C | 2.83 |
| E22D | 2.62 |

| Variant | protein stability index |
| --- | --- |
| E22Y | 2.4 |
| E22K | 2.61 |
| E22T | 2.35 |
| E22Q | 2.73 |
| E22M | 2.58 |
| E22F | 1.93 |
| E22N | 3.3 |
| E22R | 2.88 |
| E22I | 2.74 |
| E22W | 1.74 |
| E22L | 2.68 |
| E22P | 2.4 |
| E22V | 2.42 |
| E22A | 2.63 |
| N24D | 3.25 |
| N24C | 2.33 |
| N24R | 3.11 |
| N24K | 2.33 |
| N24A | 2.43 |
| N24Y | 2.27 |
| N24T | 2.46 |
| N24V | 2.26 |
| N24G | 3.47 |
| N24S | 2.64 |

| Variant | protein stability index |
| --- | --- |
| N24L | 2.51 |
| N24M | 2.6 |
| N24W | 1.79 |
| N24I | 2.48 |
| N24H | 3.28 |
| N24E | 3.25 |
| N24Q | 3.04 |
| N24P | 2.17 |
| N24F | 1.88 |
| S21K | 2.91 |
| S21N | 2.55 |
| S21H | 2.59 |
| S21T | 2.83 |
| S21I | 2.35 |
| S21G | 2.51 |
| S21V | 2.26 |
| S21Q | 2.55 |
| S21Y | 2.1 |
| S21W | 1.82 |
| S21M | 2.72 |
| S21R | 2.25 |
| S21L | 1.78 |
| S21P | 2.37 |
